Consider 1 protein from US20240317855A1 (EUREKA THERAPEUTICS, published 2024).

In this data set the target is GPC3 (glypican-3) on HEPG2 human liver cancer cells (human, UniProt P51654 25-580). Put plainly: cell-based or functional assay.
Sequence of GPC3 (glypican-3) on HEPG2 human liver cancer cells (P51654 25-580): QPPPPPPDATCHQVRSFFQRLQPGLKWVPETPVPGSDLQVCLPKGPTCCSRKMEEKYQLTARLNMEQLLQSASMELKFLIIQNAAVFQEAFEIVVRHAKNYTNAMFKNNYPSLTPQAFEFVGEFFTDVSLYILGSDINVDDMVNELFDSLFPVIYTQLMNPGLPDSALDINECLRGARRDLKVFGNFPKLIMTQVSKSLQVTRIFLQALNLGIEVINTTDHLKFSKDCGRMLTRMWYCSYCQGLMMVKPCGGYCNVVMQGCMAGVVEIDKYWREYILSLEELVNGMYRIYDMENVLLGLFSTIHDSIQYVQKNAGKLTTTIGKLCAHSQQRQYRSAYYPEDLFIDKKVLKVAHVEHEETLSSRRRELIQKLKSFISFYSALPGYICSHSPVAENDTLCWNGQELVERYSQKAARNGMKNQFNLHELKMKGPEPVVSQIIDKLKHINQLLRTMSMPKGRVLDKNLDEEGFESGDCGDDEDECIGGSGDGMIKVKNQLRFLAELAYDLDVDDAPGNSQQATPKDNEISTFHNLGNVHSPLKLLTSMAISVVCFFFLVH

B1: anti-GPC3 CSR (chimeric co-stimulatory receptor: anti-GPC3 scFv fused to CD28 transmembrane and intracellular signaling sequences) (other)
chain: QSVLTQPPSVSAAPGQRVTISCSGTRSNIGSDYVSWYQHLPGTAPKLLVYGDNLRPSGIPDRFSASKSGTSATLGITGLQTGDEADYYCGTWDYTLNGVVFGGGTKLTVLGSRGGGGSGGGGSGGGGSLEMAQVQLVESGGGLVQPGGSLRLSCAASGFTFSSYAMSWVRQAPGKGLEWVSVIYSGGSSTYYADSVKGRFTISRDNSKNTLYLQMNSLRAEDTAVYYCARTSYLNHGDYWGQGTLVTVSSAAAIEVMYPPPYLDNEKSNGTIIHVKGKHLCPSPLFPGPSKPFWVLVVVGGVLACYSLLVTVAFIIFWVRSKRSRLLHSDYMNMTPRRPGPTRKHYQPYAPPRDFAAYRS
As for B1, the “specific killing of HEPG2 (AFP+/GPC3+) target cells by T cells expressing anti-AFP caTCR-1 (caTCR-1-0 or caTCR-1-TM5) and the anti-GPC3 CSR; Cytox 96 LDH assay, E:T 2.5:1, 16 hr” value lay within 55 to 65%.
